Experimental data reported in patent US20200262877A1, “ION CHANNEL-BINDING PEPTIDES AND METHODS OF USE THEREOF” (priority 2017, published 2020).

Tests used:
NR2A = target: T1, NR2A (Homo sapiens, UniProt Q12879); assay: Ion channel panel (IonWorks Barracuda): NR2A; type: cell-based; conditions: 100% = no change, <100% = inhibition
T1 construct: host or cells: HEK293 or CHO
Outline: (§1)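 Transfected HEK293 or CHO cells were exposed for at least 5 min to peptides at 200 nM and 20 μM final, tested in duplicate, in HEPES-buffered physiological saline. Activation was taken as peptide-plus-agonist current over control current ×100, and inhibition as 1 minus that ratio ×100. Each channel's control was its own reference compound.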

hERG = hERG (Homo sapiens, UniProt Q12809); assay: in vitro; conditions: 100% = no change, <100% = inhibition
Outline: as §1

Nav1.5 = Nav1.5 (Homo sapiens, UniProt Q14524); assay: in vitro; conditions: 100% = no change; for Activity of Nav1.5 with peptide, expressed as a percentage of the reference compound: peptide at 0.2 μM; for Activity of Nav1.5 with peptide (percentage of the reference compound): peptide at 20 μM
Sequence of Nav1.5 (Q14524 whole entry): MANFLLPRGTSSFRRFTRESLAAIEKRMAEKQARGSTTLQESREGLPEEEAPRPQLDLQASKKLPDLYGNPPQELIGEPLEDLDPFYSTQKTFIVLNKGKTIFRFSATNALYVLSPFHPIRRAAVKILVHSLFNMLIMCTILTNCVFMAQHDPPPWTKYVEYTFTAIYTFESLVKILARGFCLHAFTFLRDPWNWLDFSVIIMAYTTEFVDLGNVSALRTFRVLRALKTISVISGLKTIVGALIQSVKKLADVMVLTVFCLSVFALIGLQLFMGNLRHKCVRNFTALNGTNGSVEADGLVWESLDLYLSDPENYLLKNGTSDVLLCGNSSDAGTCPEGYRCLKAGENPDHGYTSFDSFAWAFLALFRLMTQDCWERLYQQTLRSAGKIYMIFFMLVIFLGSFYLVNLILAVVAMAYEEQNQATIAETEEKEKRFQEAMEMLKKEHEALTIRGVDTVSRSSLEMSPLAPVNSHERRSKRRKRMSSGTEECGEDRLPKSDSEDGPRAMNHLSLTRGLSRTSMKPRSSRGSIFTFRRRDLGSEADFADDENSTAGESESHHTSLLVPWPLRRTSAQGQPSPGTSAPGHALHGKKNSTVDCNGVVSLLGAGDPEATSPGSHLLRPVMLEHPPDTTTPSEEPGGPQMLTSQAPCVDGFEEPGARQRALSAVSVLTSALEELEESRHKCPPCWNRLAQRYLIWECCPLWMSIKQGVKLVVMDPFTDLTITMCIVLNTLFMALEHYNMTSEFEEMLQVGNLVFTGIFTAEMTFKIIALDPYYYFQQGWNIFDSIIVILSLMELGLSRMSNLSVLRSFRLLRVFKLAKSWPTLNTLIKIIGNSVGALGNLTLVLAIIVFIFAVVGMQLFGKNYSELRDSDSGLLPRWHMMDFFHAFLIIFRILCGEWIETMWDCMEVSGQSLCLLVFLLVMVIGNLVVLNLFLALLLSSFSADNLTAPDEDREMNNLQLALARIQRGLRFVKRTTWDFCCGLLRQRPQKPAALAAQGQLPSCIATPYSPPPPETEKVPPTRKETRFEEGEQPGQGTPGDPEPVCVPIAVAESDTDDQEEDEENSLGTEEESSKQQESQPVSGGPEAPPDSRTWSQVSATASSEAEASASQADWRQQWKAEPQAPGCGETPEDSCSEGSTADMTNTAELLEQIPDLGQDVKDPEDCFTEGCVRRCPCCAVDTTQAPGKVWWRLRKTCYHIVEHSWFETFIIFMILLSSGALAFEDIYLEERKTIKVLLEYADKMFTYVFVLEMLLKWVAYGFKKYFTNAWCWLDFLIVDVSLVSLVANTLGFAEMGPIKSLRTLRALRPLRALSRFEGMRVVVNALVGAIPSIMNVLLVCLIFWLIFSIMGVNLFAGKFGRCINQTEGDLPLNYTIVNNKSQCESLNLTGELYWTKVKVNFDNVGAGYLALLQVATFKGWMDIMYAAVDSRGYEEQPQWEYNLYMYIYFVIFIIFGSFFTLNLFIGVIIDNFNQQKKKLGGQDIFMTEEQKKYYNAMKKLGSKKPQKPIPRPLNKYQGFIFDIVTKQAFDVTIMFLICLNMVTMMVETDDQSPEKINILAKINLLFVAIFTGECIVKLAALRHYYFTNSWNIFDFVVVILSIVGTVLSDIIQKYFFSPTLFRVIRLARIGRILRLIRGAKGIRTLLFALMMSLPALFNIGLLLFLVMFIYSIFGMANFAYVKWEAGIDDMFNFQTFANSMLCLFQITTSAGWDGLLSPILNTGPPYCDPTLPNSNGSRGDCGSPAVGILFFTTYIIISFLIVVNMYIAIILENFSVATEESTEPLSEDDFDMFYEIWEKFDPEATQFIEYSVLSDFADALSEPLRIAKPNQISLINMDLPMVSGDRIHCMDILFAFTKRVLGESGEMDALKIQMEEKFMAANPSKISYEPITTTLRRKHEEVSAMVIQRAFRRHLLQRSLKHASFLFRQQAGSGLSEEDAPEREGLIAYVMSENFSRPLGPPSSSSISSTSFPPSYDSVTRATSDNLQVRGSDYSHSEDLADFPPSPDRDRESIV
Outline: as §1

Nav1.7 = target: T2, Nav1.7 (Homo sapiens, UniProt Q15858); assay: cell-based; type: cell-based; conditions: 100% = no change; for Activity of Nav1.7 with peptide, expressed as a percentage of the reference compound: peptide at 0.2 μM; for Activity of Nav1.7 with peptide (percentage of the reference compound): peptide at 20 μM
T2 construct: host or cells: HEK293 or CHO
T2 sequence (Q15858 whole entry): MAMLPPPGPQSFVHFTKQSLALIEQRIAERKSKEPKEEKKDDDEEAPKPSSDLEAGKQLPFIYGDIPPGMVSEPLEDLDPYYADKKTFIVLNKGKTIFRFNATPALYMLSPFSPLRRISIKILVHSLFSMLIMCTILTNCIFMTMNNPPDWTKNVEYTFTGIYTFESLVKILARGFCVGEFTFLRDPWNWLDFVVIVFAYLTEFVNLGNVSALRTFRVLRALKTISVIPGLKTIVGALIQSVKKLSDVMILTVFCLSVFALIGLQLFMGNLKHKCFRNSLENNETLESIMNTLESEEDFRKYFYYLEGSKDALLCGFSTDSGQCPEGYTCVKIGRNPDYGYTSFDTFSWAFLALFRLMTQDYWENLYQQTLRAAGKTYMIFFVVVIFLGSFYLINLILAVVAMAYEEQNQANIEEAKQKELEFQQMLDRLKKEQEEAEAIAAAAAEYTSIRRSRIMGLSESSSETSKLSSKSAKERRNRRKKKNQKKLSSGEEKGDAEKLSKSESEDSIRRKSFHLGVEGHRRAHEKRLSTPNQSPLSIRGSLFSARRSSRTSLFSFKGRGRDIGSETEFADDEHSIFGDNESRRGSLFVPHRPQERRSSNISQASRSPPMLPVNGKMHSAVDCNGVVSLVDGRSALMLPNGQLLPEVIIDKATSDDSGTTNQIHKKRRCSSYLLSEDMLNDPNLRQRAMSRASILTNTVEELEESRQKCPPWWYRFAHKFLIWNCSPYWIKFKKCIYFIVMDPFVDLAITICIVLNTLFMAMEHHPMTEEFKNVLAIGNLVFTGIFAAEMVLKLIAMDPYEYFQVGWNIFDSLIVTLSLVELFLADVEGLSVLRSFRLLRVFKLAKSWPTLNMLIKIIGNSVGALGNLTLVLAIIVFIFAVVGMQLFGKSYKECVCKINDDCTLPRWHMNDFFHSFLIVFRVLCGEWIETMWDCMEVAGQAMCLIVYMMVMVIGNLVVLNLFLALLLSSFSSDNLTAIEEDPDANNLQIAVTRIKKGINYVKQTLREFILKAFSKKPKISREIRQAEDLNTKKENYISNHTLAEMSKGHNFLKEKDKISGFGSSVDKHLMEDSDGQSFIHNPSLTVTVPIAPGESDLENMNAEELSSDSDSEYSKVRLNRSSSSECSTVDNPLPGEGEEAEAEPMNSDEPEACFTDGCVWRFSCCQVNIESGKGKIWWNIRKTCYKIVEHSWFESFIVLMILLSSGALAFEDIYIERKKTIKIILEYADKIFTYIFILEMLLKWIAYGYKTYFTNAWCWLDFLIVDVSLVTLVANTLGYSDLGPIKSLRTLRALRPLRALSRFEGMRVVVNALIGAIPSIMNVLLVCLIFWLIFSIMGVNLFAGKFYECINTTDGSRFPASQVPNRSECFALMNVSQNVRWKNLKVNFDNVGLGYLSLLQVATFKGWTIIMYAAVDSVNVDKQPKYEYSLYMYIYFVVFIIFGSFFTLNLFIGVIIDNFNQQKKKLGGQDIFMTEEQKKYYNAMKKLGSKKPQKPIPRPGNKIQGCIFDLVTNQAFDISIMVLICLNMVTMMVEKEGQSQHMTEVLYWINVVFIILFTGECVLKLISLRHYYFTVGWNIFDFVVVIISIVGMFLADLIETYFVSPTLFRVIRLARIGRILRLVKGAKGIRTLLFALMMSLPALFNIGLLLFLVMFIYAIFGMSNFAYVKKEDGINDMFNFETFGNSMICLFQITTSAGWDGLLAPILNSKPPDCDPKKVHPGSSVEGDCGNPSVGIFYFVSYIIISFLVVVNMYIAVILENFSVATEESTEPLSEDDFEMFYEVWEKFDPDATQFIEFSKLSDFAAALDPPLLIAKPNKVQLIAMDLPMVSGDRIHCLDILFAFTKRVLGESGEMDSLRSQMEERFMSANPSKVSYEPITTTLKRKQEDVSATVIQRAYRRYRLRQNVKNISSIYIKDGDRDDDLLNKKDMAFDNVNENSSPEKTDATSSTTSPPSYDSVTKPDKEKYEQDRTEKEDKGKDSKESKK

GABA = assay: Ion channel panel (IonWorks Barracuda): GABA; type: cell-based; conditions: 100% = no change, <100% = inhibition
Outline: as §1

NR2B = target: T3, NR2B (Homo sapiens, UniProt Q13224); assay: Ion channel panel (IonWorks Barracuda): NR2B; type: cell-based; conditions: 100% = no change, <100% = inhibition
T3 construct: host or cells: HEK293 or CHO
Outline: as §1

α3β4 = target: T4, α3β4 (Homo sapiens, UniProt P30926+P32297); assay: Ion channel panel (IonWorks Barracuda): α3β4; type: cell-based; conditions: 100% = no change, <100% = inhibition
T4 construct: host or cells: HEK293 or CHO
Outline: as §1

TRPA1 = target: T5, TRPA1 (Homo sapiens, UniProt O75762); assay: Ion channel panel (IonWorks Barracuda): TRPA1; type: cell-based; conditions: 100% = no change, <100% = inhibition
T5 construct: host or cells: HEK293 or CHO
Outline: as §1

Kir2.1 = target: T6, Kir2.1 (Homo sapiens, UniProt P63252); assay: Ion channel panel (IonWorks Barracuda): Kir2.1; type: cell-based; conditions: 100% = no change, <100% = inhibition
T6 construct: host or cells: HEK293 or CHO
Outline: as §1

Kv1.1 = target: T7, Kv1.1 (Homo sapiens, UniProt Q09470); assay: cell-based; type: cell-based; conditions: 100% = no change, <100% = inhibition
T7 construct: host or cells: HEK293 or CHO
Outline: as §1

Kv1.3 = target: T8, Kv1.3 (Homo sapiens, UniProt P22001); assay: cell-based; type: cell-based; conditions: 100% = no change, <100% = inhibition
T8 construct: host or cells: HEK293 or CHO
Outline: as §1

Kv1.2 = target: T9, Kv1.2 (Homo sapiens, UniProt P16389); assay: cell-based; type: cell-based; conditions: 100% = no change, <100% = inhibition
T9 construct: host or cells: HEK293 or CHO
Outline: as §1

TRPV1 = target: T10, TRPV1 (Homo sapiens, UniProt Q8NER1); assay: Ion channel panel (IonWorks Barracuda): TRPV1; type: cell-based; conditions: 100% = no change, <100% = inhibition
T10 construct: host or cells: HEK293 or CHO
Outline: as §1

Cav2.2 = target: T11, Cav2.2 (Homo sapiens, UniProt Q00975); assay: cell-based; conditions: 100% = no change, <100% = inhibition
T11 construct: host or cells: HEK293 or CHO
Outline: as §1

Kv2.1 = target: T12, Kv2.1 (Homo sapiens, UniProt Q14721); assay: cell-based; conditions: 100% = no change, <100% = inhibition
T12 construct: host or cells: HEK293 or CHO
T12 sequence (Q14721 whole entry): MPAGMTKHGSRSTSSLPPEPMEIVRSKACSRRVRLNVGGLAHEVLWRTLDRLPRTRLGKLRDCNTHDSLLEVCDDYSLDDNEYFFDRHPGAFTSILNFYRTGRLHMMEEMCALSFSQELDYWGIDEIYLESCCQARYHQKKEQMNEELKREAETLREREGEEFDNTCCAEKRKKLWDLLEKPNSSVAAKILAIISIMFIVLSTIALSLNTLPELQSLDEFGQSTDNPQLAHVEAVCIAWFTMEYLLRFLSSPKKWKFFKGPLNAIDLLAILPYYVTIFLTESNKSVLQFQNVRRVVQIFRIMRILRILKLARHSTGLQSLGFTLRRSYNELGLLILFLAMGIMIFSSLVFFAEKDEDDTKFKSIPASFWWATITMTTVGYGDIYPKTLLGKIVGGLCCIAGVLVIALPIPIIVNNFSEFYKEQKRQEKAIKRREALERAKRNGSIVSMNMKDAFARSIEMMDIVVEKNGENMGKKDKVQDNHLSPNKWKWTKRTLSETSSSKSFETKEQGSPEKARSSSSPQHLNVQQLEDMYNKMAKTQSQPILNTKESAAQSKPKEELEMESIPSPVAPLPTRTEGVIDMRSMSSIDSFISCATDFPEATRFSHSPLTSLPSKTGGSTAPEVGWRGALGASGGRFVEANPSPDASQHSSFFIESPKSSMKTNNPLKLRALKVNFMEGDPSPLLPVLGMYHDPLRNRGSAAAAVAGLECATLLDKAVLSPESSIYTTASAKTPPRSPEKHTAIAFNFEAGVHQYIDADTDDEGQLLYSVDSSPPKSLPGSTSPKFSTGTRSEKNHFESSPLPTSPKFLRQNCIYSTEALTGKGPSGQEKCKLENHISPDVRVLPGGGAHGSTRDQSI
Outline: as §1

Cav2.1 = target: T13, Cav2.1 (Homo sapiens, UniProt O00555); assay: cell-based; conditions: 100% = no change, <100% = inhibition
T13 construct: host or cells: HEK293 or CHO
Outline: as §1

5HT3a = target: T14, 5HT3a (Homo sapiens, UniProt P46098); assay: Ion channel panel (IonWorks Barracuda): 5HT3a; type: cell-based
T14 construct: host or cells: HEK293 or CHO
T14 sequence (P46098 whole entry, looked up): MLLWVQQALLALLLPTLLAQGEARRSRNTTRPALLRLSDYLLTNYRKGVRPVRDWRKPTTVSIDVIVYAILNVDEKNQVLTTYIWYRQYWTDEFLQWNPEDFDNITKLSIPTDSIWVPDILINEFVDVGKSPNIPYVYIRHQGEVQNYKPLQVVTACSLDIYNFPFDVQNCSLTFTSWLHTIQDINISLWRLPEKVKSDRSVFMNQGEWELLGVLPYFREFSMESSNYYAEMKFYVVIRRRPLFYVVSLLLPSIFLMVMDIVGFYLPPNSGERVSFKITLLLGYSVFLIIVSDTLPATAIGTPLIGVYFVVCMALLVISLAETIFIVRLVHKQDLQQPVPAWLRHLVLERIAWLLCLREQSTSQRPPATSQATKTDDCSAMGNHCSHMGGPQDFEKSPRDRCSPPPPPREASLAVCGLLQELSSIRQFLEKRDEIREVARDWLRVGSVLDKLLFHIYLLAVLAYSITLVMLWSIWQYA
Outline: as §1

α4β2 = target: T15, α4β2 (Homo sapiens, UniProt P17787+P43681); assay: Ion channel panel (IonWorks Barracuda): α4β2; type: cell-based; conditions: 100% = no change, <100% = inhibition
T15 construct: host or cells: HEK293 or CHO
Outline: as §1

[1] = first of two Nav1.5 columns (probably TP1)
[2] = second of two Nav1.5 columns (probably TP2)
[3] = first of two Nav1.7 columns (probably TP1)
[4] = second of two Nav1.7 columns (probably TP2)

With “17 (GSRPTDIKCSASYQCFPVCKSRFGKTNGRCVNGLCDCF) [compound 17]” the “Activity of NR2A with peptide, expressed as a percentage of the reference compound” value (NR2A; peptide at 0.2 μM) was 83%, the “Activity of NR2A with peptide (percentage of the reference compound)” value (NR2A; peptide at 20 μM) was 96% and the “Activity of hERG with peptide, expressed as a percentage of the reference compound” value (hERG; peptide at 0.2 μM) was 85%. The “Activity of hERG with peptide (percentage of the reference compound)” value (hERG; peptide at 20 μM) was 8%, the “Activity of Nav1.5 with peptide, expressed as a percentage of the reference compound” value (Nav1.5; [1]) was 96% and the “Activity of Nav1.5 with peptide, expressed as a percentage of the reference compound” value (Nav1.5; [2]) was 95%. The “Activity of Nav1.5 with peptide (percentage of the reference compound)” value (Nav1.5; [1]) was 95%, the “Activity of Nav1.5 with peptide (percentage of the reference compound)” value (Nav1.5; [2]) was 94% and the “Activity of Nav1.7 with peptide, expressed as a percentage of the reference compound” value (Nav1.7; [3]) was 66%. The “Activity of Nav1.7 with peptide, expressed as a percentage of the reference compound” value (Nav1.7; [4]) was 61%, the “Activity of Nav1.7 with peptide (percentage of the reference compound)” value (Nav1.7; [3]) was 75% and the “Activity of Nav1.7 with peptide (percentage of the reference compound)” value (Nav1.7; [4]) was 60%. For the same substance, the “Activity of GABA with peptide, expressed as a percentage of the reference compound” value (GABA; peptide at 0.2 μM) was 97%, the “Activity of GABA with peptide (percentage of the reference compound)” value (GABA; peptide at 20 μM) was 108% and the “Activity of NR2B with peptide, expressed as a percentage of the reference compound” value (NR2B; peptide at 0.2 μM) was 90%. The “Activity of NR2B with peptide (percentage of the reference compound)” value (NR2B; peptide at 20 μM) was 77%, the “Activity of a3b4 with peptide, expressed as a percentage of the reference compound” value (α3β4; peptide at 0.2 μM) was 98% and the “Activity of a3b4 with peptide (percentage of the reference compound)” value (α3β4; peptide at 20 μM) was 97%. The “Activity of TRPA1 with peptide, expressed as a percentage of the reference compound” value (TRPA1; peptide at 0.2 μM) was 176%, the “Activity of TRPA1 with peptide (percentage of the reference compound)” value (TRPA1; peptide at 20 μM) was 129% and the “Activity of Kir2.1 with peptide, expressed as a percentage of the reference compound” value (Kir2.1; peptide at 0.2 μM) was 103%. The “Activity of Kir2.1 with peptide (percentage of the reference compound)” value (Kir2.1; peptide at 20 μM) was 84%, the “Activity of Kv1.1 with peptide, expressed as a percentage of the reference compound” value (Kv1.1; peptide at 0.2 μM) was 106% and the “Activity of Kv1.1 with peptide (percentage of the reference compound)” value (Kv1.1; peptide at 20 μM) was 89%. The “Activity of Kv1.3 with peptide, expressed as a percentage of the reference compound” value (Kv1.3; peptide at 0.2 μM) was 96%, the “Activity of Kv1.3 with peptide (percentage of the reference compound)” value (Kv1.3; peptide at 20 μM) was 6% and the “Activity of Kv1.2 with peptide, expressed as a percentage of the reference compound” value (Kv1.2; peptide at 0.2 μM) was 97%. For the same substance, the “Activity of Kv1.2 with peptide (percentage of the reference compound)” value (Kv1.2; peptide at 20 μM) was 47%, the “Activity of TRPV1 with peptide, expressed as a percentage of the reference compound” value (TRPV1; peptide at 0.2 μM) was 99% and the “Activity of TRPV1 with peptide (percentage of the reference compound)” value (TRPV1; peptide at 20 μM) was 82%. For the same substance, the “Activity of Cav2.2 with peptide, expressed as a percentage of the reference compound” value (Cav2.2; peptide at 0.2 μM) was 117%, the “Activity of Cav2.2 with peptide (percentage of the reference compound)” value (Cav2.2; peptide at 20 μM) was 100% and the “Activity of Kv2.1 with peptide, expressed as a percentage of the reference compound” value (Kv2.1; peptide at 0.2 μM) was 88%. For the same substance, the “Activity of Kv2.1 with peptide (percentage of the reference compound)” value (Kv2.1; peptide at 20 μM) was 93%, the “Activity of Cav2.1 with peptide, expressed as a percentage of the reference compound” value (Cav2.1; peptide at 0.2 μM) was 107% and the “Activity of Cav2.1 with peptide (percentage of the reference compound)” value (Cav2.1; peptide at 20 μM) was 90%. For the same substance, the “Activity of 5HT3a with peptide (percentage of the reference compound)” value (5HT3a) was 85%, the “Activity of 5HT3a with peptide, expressed as a percentage of the reference compound” value (5HT3a) was 81% and the “Activity of a4b2 with peptide, expressed as a percentage of the reference compound” value (α4β2; peptide at 0.2 μM) was 93%. The “Activity of a4b2 with peptide (percentage of the reference compound)” value (α4β2; peptide at 20 μM) was 78%.
